Measured values from patent US10793871B2, “Nucleic acid molecule encoding glei protein variant with increased phytic acid sensitivity and use thereof” (University-Industry Foundation, Yonsei University, priority 2015, dated 2020).

Legend:
LOS4 ATPase = assay: Steady-state ATPase assay of LOS4-His; assay type: biochemical, Arabidopsis thaliana; conditions: for stimulation of LOS4 ATPase activity in the absence of InsP6: 1 μM LOS4-His, 2 mM ATP, 2 μM MBP-Gle1C or variant
Protocol: A steady-state ATPase assay was performed as described by Alcázar-Román et al. (Inositol hexakisphosphate and Gle1 activate the DEAD-box protein Dbp5 for nuclear mRNA export. Nat. Cell Biol. 8: 711-716, 2006) with slight modifications. The ATPase assay was performed with a LOS4-His protein in a 96-well plate using a buffer containing 20 mM HEPES (pH 7.5), 150 mM NaCl, 3 mM MgCl2, 1 mM DTT, 2 mM ATP, 6 mM phosphoenolpyruvate, 1.2 mM NADH, 1 mg/ml BSA and 2% (v/v) pyruvate kinase/lactate dihydrogenase (Sigma-Aldrich) in a total volume of 100 μl. Polyadenylic acid was added at 50 μg/ml or different concentrations as described above. Absorbance at 340 nm was measured using a VersaMax absorbance microplate reader (Molecular Devices), and the data were analyzed using SoftMax Pro software (Molecular Devices).
Gle1 and Gle1C (aa residues 244-611) were cloned into a pMAL C2X vector (New England Biolabs) for MBP fusion, LOS4 was cloned into a pET-29a vector for His fusion. MBP-Gle1 and MBP-Gle1C proteins were expressed in a BL21 (DE3) strain, and LOS4-His proteins were expressed in a Rosseta (DE3) strain of Escherichia coli. Cells were grown at 37° C. to an A600 of 0.4, shifted to 16° C., and induced by 0.25 mM IPTG for 16 hours. The MBP- and His-fusion proteins were purified following the manufacturer's introductions using MBP Excellose (Bioprogen) and His60 Ni Superflow™ resin (Clontech), respectively.

[1] = biological target: 6x-histidine-fused LOS4 (LOS4-His) (Arabidopsis) (UniProt Q93ZG7)
[2] = biological target: 6x-histidine-fused LOS4 (LOS4-His) (Arabidopsis) (UniProt Q93ZG7); remark: listed apart in the source
[3] = biological target: T1, LOS4 RNA helicase activity (Arabidopsis thaliana, UniProt Q93ZG7); assay: In vitro nucleic acid-melting assay with hairpin-shaped molecular beacons; assay type: biochemical; conditions: in the presence of ATP; LOS4-His:MBP-Gle1 1:1, 1:2, 1:4 or LOS4-His only
T1 construct: LOS4 was cloned into a pET-29a vector for His fusion; made in house; host or cells: Escherichia coli Rosetta (DE3) for LOS4-His; BL21 (DE3) for MBP-Gle1
T1 sequence (Q93ZG7 1-496): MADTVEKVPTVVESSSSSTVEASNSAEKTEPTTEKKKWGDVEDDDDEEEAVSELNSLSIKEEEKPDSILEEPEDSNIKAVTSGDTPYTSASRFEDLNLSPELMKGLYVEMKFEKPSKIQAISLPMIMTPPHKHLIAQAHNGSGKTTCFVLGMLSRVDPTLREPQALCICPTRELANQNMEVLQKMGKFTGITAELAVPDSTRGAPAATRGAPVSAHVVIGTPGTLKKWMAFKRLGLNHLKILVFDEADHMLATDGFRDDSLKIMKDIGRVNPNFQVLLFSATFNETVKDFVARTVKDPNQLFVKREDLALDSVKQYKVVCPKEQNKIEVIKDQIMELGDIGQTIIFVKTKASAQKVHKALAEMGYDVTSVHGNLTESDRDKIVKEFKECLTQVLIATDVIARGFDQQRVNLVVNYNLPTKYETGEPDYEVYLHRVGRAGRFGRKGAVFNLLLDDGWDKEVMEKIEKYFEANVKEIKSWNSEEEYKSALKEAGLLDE
Protocol: A nucleic acid-melting assay was performed as described by Kim et al. (Cold shock domain proteins and glycine-rich RNA-binding proteins from Arabidopsis thaliana can promote the cold adaptation process in Escherichia coli. Nucleic Acids Res. 35: 506-516, 2007) using 78-nucleotide-long, 9-bp-containing, hairpin-shaped molecular beacons conjugated with a fluorophore (tetramethylrhodamine) and a quencher (Dabcyl). Spectrofluorometry was performed using a fluorescence spectrophotometer (Hitachi F-2000) at an excitation wavelength of 555 nm and an emission wavelength of 575 nm.

LOS4-His = biological target: T2, LOS4-His (Arabidopsis thaliana, UniProt Q93ZG7); assay: In vitro pull-down assay; assay type: binding; conditions: Coomassie blue staining of eluted proteins
T2 construct: LOS4 was cloned into a pET-29a vector for His fusion; made in house; host or cells: Escherichia coli Rosetta (DE3) for LOS4-His; BL21 (DE3) for MBP-Gle1
T2 sequence (Q93ZG7 1-496): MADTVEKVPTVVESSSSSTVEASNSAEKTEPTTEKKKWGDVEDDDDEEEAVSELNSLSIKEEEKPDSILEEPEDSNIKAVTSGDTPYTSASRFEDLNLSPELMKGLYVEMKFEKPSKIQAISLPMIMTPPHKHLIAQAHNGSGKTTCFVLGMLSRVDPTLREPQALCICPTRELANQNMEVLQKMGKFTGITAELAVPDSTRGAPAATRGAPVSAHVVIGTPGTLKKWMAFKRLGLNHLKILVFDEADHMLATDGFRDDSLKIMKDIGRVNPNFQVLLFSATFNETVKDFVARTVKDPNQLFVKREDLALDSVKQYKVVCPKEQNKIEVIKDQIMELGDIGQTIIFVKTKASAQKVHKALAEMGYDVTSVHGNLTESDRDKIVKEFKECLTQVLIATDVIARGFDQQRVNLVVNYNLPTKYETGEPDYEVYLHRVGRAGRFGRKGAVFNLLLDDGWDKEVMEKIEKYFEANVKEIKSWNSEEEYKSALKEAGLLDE
Protocol: MBP and MBP-Gle1 proteins immobilized on MBP Excellose (Bioprogen) were incubated with LOS4-His proteins for 2 hours at room temperature. Similarly, LOS4-His proteins immobilized on a His60 Ni Superflow™ resin (Clontech) were incubated with MBP or MBP-Gle1 for 2 hours at room temperature. After extensive washing of the resins, the bound proteins were eluted with 2× SDS sample buffer, and the eluted proteins were visualized by Coomassie blue staining.

Molecule: O=S(=O)(O)OC1C(OS(=O)(=O)O)C(OS(=O)(=O)O)C(OS(=O)(=O)O)C(OS(=O)(=O)O)C1OS(=O)(=O)O (centres unmarked) [InsP6 analog, reference compound]
- further stimulation of LOS4 ATPase activity (LOS4 ATPase; LOS4-His 1 μM, ATP 2 mM, RNA, MBP-Gle1 2 μM plus 10 μM InsP6 analog): did not do so

Molecule: MBP fusion protein of the carboxyl-terminal domain of Gle1 (MBP-Gle1C; amino acid residues 244-611)
- apparent kcat of LOS4-His ATPase [1]: 0.565 s⁻¹

Molecule: polyadenylic acid [RNA, reference compound]
- LOS4 ATPase activity (LOS4 ATPase; LOS4-His 1 μM, ATP 2 mM, RNA 50 μg/ml only): moderately stimulated LOS4 ATPase activity

Molecule: MBP-Gle1C (ID)
- LOS4 ATPase activity in the absence of InsP6 (fold decrease) [2]: 2

B1: MBP-Gle1: maltose-binding protein (MBP)-fused full-length Arabidopsis Gle1 (protein)
chain: MGIVLEPPCPKSVDGISIDPEPNWNFESLVAEIASVEKKLNGFSMYPQPITNTTLRMGRRGGGFVMHVSEDEMESDEGEESDDEEEEEDHSQICTAGKRFACDELYLSDESDEEFDHEPEYMMNKLGLAESALYEVINDHQTEIKDDIRNQVSVVETEIMNEIETSLSAIARVEKYSETRKEVERKLDLQYQRKVAEALDTHLTAVQREHKIKSQIEERKIRSEEAQEEARRKERAHQEEKIRQEKARAEAQMLAKIRAEEEKKEVERKAAREVAEKEVADRKAAEQKLAEQKAVIESVTGSSATSNAQAGGNSIRAAESALILENHRLKKLEELETTNQSLKSRSNENFSSFEKHIGRVIRQISGTKDSVSGKINDIVKIFKDPRCPVSISIAAFAKKMVTTKEKPNPFACSYVIVYINSQFPQVMDILLAEFHKACIYTVPKHIVNSQSAWDSDAYERLDSIMRLYGALVQTDIRVGNATNVHGIEHGWAWLARFLNKIPANRATATALNSFLQTAGFGLHQRYKSQFLKVVNVVREHFLQKLRAKKDTSDLLVIIAEITAYLDDRMYLKEPEGRAMKTTSTLSSELTAELNQPNYNQNYQRNDYRNYY
- induction of LOS4 ATPase activity (LOS4 ATPase; LOS4-His 1 μM, ATP 2 mM, RNA 50 μg/ml and MBP-Gle1 (full length) 2 μM): threefold
- beacon fluorescence (LOS4 RNA helicase activity) [3]: significant increase in fluorescence in a concentration-dependent manner
- pull-down by nickel resin-bound LOS4-His (LOS4-His): could pull down MBP-Gle1

B2: LOS4-His: 6×-histidine-fused LOS4, Arabidopsis DEAD-box ATPase/RNA helicase, homolog of yeast Dbp5 (protein)
chain: MADTVEKVPTVVESSSSSTVEASNSAEKTEPTTEKKKWGDVEDDDDEEEAVSELNSLSIKEEEKPDSILEEPEDSNIKAVTSGDTPYTSASRFEDLNLSPELMKGLYVEMKFEKPSKIQAISLPMIMTPPHKHLIAQAHNGSGKTTCFVLGMLSRVDPTLREPQALCICPTRELANQNMEVLQKMGKFTGITAELAVPDSTRGAPAATRGAPVSAHVVIGTPGTLKKWMAFKRLGLNHLKILVFDEADHMLATDGFRDDSLKIMKDIGRVNPNFQVLLFSATFNETVKDFVARTVKDPNQLFVKREDLALDSVKQYKVVCPKEQNKIEVIKDQIMELGDIGQTIIFVKTKASAQKVHKALAEMGYDVTSVHGNLTESDRDKIVKEFKECLTQVLIATDVIARGFDQQRVNLVVNYNLPTKYETGEPDYEVYLHRVGRAGRFGRKGAVFNLLLDDGWDKEVMEKIEKYFEANVKEIKSWNSEEEYKSALKEAGLLDE
- apparent kcat of LOS4-His (LOS4 ATPase; LOS4-His (1 μM) alone, 0-2 mM ATP): 0.267 s⁻¹
- beacon fluorescence (LOS4 RNA helicase activity) [3]: did not increase the fluorescence of the beacons

B3: MBP-Gle1C (IS1): MBP fusion of Arabidopsis Gle1C variant InsP6-Sensitive 1: mutation from A437 to K (protein)
chain: QEKARAEAQMLAKIRAEEEKKEVERKAAREVAEKEVADRKAAEQKLAEQKAVIESVTGSSATSNAQAGGNSIRAAESALILENHRLKKLEELETTNQSLKSRSNENFSSFEKHIGRVIRQISGTKDSVSGKINDIVKIFKDPRCPVSISIAAFAKKMVTTKEKPNPFACSYVIVYINSQFPQVMDILLAEFHKKCIYTVPKHIVNSQSAWDSDAYERLDSIMRLYGALVQTDIRVGNATNVHGIEHGWAWLARFLNKIPANRATATALNSFLQTAGFGLHQRYKSQFLKVVNVVREHFLQKLRAKKDTSDLLVIIAEITAYLDDRMYLKEPEGRAMKTTSTLSSELTAELNQPNYNQNYQRNDYRNYY
- stimulation of LOS4 ATPase activity in the absence of InsP6 (LOS4 ATPase; RNA, no InsP6): activated LOS4 ATPase activity to similar degrees
- InsP6 concentration at which LOS4-stimulating activity increases above basal (LOS4 ATPase; with RNA, InsP6 0-100 μM): 100 nM
- InsP6 concentration giving maximum LOS4-stimulating activity (LOS4 ATPase; with RNA, InsP6 0-100 μM): ~1 µM

B4: MBP-Gle1C (IS2): MBP fusion of Arabidopsis Gle1C variant InsP6-Sensitive 2: double mutations from E433 to K and from A437 to K (protein)
chain: QEKARAEAQMLAKIRAEEEKKEVERKAAREVAEKEVADRKAAEQKLAEQKAVIESVTGSSATSNAQAGGNSIRAAESALILENHRLKKLEELETTNQSLKSRSNENFSSFEKHIGRVIRQISGTKDSVSGKINDIVKIFKDPRCPVSISIAAFAKKMVTTKEKPNPFACSYVIVYINSQFPQVMDILLAKFHKKCIYTVPKHIVNSQSAWDSDAYERLDSIMRLYGALVQTDIRVGNATNVHGIEHGWAWLARFLNKIPANRATATALNSFLQTAGFGLHQRYKSQFLKVVNVVREHFLQKLRAKKDTSDLLVIIAEITAYLDDRMYLKEPEGRAMKTTSTLSSELTAELNQPNYNQNYQRNDYRNYY
- stimulation of LOS4 ATPase activity in the absence of InsP6 (LOS4 ATPase; RNA, no InsP6): reduced abilities to stimulate LOS4
- InsP6 concentration at which LOS4-stimulating activity increases above basal (LOS4 ATPase; with RNA, InsP6 0-100 μM): 1 nM
- InsP6 concentration giving full stimulation of LOS4 ATPase activity (LOS4 ATPase; with RNA, InsP6 0-100 μM): 100 nM

B5: MBP-Gle1C (ID): MBP fusion of Arabidopsis Gle1C variant InsP6-Dead: mutation from K436 to A (protein)
chain: QEKARAEAQMLAKIRAEEEKKEVERKAAREVAEKEVADRKAAEQKLAEQKAVIESVTGSSATSNAQAGGNSIRAAESALILENHRLKKLEELETTNQSLKSRSNENFSSFEKHIGRVIRQISGTKDSVSGKINDIVKIFKDPRCPVSISIAAFAKKMVTTKEKPNPFACSYVIVYINSQFPQVMDILLAEFHAACIYTVPKHIVNSQSAWDSDAYERLDSIMRLYGALVQTDIRVGNATNVHGIEHGWAWLARFLNKIPANRATATALNSFLQTAGFGLHQRYKSQFLKVVNVVREHFLQKLRAKKDTSDLLVIIAEITAYLDDRMYLKEPEGRAMKTTSTLSSELTAELNQPNYNQNYQRNDYRNYY
- stimulation of LOS4 ATPase activity in the absence of InsP6 (LOS4 ATPase; RNA, no InsP6): reduced abilities to stimulate LOS4
- decrease in LOS4-stimulating activity in the absence of InsP6 (LOS4 ATPase; K436A mutation vs MBP-Gle1C, no InsP6): > 2 fold
